Data set [1] concerns the molecule itself. The experiment in a line: crystal structure.
Data set [2] deals with the molecule itself. The experiment in a line: FRET or BRET.

Numbering of substitutions follows the chain as printed. In names and notes the source's numbering stands.

B1: zinc transporter YiiP from Escherichia coli (natural protein, UniProt P69380 1-300, looked up)
chain: MNQSYGRLVSRAAIAATAMASLLLLIKIFAWWYTGSVSILAALVDSLVDIGASLTNLLVVRYSLQPADDNHSFGHGKAESLAALAQSMFISGSALFLFLTGIQHLISPTPMTDPGVGVIVTIVALICTIILVSFQRWVVRRTQSQAVRADMLHYQSDVMMNGAILLALGLSWYGWHRADALFALGIGIYILYSALRMGYEAVQSLLDRALPDEERQEIIDIVTSWPGVSGAHDLRTRQSGPTRFIQIHLEMEDSLPLVQAHMVADQVEQAILRRFPGSDVIIHQDPCSVVPREGKRSMLS
modifications: ethyl mercury phosphate or thiomerosal bound to C127 (crystal derivatives)
As usually defined, the stoichiometry N is the number of molecules, sites or subunits per partner or assembly. For the protein B1, the “stoichiometry N” value in data set [1] worked out at 2.

B2: YiiP^C127V doubly labeled with Alexa-488 and Alexa-647 (natural protein, Escherichia coli, UniProt P69380 1-300, looked up)
chain: B1 chain with C127V
modifications: Alexa donor-acceptor pair (Alexa-488, Alexa-647) on cysteine (Cys287)
Regarding B2, the binding result in data set [2] is “binds”.

The record behind these values is publication PMC2758918 (Nature structural & molecular biology, 2009).
